Measurements from patent US20260028400A1.

Columns and labels:
[1] = biological target: human- or mouse-derived ROR1 antigen (Sino Biological); assay: ELISA on coated ROR1 antigen (human or mouse not said), OD450
[2] = biological target: human- or mouse-derived ROR1 antigen (Sino Biological); assay: ELISA on coated ROR1 antigen (Sino Biological), conjugate against parent antibody P015044
[3] = biological target: human- or mouse-derived ROR1 antigen (Sino Biological); assay: ELISA on coated ROR1 antigen (Sino Biological), conjugate against parent antibody P015042
[4] = biological target: human- or mouse-derived ROR1 antigen (Sino Biological); assay: ELISA on coated ROR1 antigen (Sino Biological), conjugate against parent antibody P015004

B1: P015044 (antibody, V domains shown)
VH: EVQLLESGGGLVQPGGSLRLSCAASGFTFSNYAMHWVRQAPGKGLEWVSIIYPDDDTRYNPSFRGRFTISRDNSKNTLYLQMNSLRAEDTAVYYCARDLLYAGDYWGQGTLVTVSS
VL: QSVLTQPPSASGTPGQRVTISCGGNNIESKAVHWYQQLPGTAPKLLIYANNKRPSGVPDRFSGSKSGTSASLAISGLRSEDEADYYCQSYDSNKVVFGGGTKLTVL
EC50 (read off the curve) [1]: 0.8 nM

B2: P015044-vc-PAB-MMAE (antibody, IgG1, V domains shown)
VH: B1 VH
VL: B1 VL
modifications: maleimidocaproyl-valine-citrulline-p-aminobenzyloxycarbonyl monomethyl auristatin E on cysteine sulfhydryls of reduced disulfides; positions not given; average 3.0 drugs per antibody
EC50 (read off the curve) [1]: 2 nM
Affinity compared to parent antibody (%) [2]: 82.7%

B3: P015042 (antibody, V domains shown)
VH: EVQLLESGGGLVQPGGSLRLSCAASGFTFSDYAMSWVRQAPGKGLEWVSVISSDGGSIYYADSVKGRFTISRDNSKNTLYLQMNSLRAEDTAVYYCAKDRSRDMEVDFDYWGQGTLVTVSS
VL: QSVLTQPPSASGTPGQRVTISCSGSSSNIGSNYVTWYQQLPGTAPKLLIYDSSQRPSGVPDRFSGSKSGTSASLAISGLRSEDEADYYCGTWDYSLSGYVFGGGTKLTVL
EC50 (read off the curve) [1]: 0.5 nM

B4: P015042-vc-PAB-MMAE (antibody, IgG1, V domains shown)
VH: B3 VH
VL: B3 VL
modifications: maleimidocaproyl-valine-citrulline-p-aminobenzyloxycarbonyl monomethyl auristatin E on cysteine sulfhydryls of reduced disulfides; positions not given; average 3.3 drugs per antibody
EC50 (read off the curve) [1]: 2 nM
Affinity compared to parent antibody (%) [3]: 99.3%

B5: P015004 (antibody, V domains shown)
VH: EVQLLESGGGLVQPGGSLRLSCAASGFTFSDYAMAWVRQAPGKGLEWVSIIYPGDSETIYSPSFEGRFTISRDNSKNTLYLQMNSLRAEDTAVYYCARDTYWEGYFDLWGQGTLVTVSS
VL: EIVLTQSPGTLSLSPGERATLSCRASQGISNYLAWYQQKPGQAPRLLIYDASNLESGIPDRFSGSGSGTDFTLTISRLEPEDFAVYYCQQYANLPYTFGQGTKVEIK
EC50 (read off the curve) [1]: 0.8 nM

B6: P015004-vc-PAB-MMAE (antibody, IgG1, V domains shown)
VH: B5 VH
VL: B5 VL
modifications: maleimidocaproyl-valine-citrulline-p-aminobenzyloxycarbonyl monomethyl auristatin E on cysteine sulfhydryls of reduced disulfides; positions not given; average 3.0 drugs per antibody
EC50 (read off the curve) [1]: 2 nM
Affinity compared to parent antibody (%) [4]: 80.3%
